Measurements published in US20190300612A1 (ELANCO US, published 2019).

What was measured:
[1] = molecular target: T1, cPDGFRA extracellular domain (ECD)-Fc fusion protein (dog); experiment: comparison of the KD values of Table 1
T1 construct: extracellular domain; also called cPDGFRA-Fc; cPDGFRA-ECD-Xa-Fc

[2] = molecular target: T1, cPDGFRA extracellular domain (ECD)-Fc …; experiment: kinetic binding to PDGFRA-Fc, antibody 30 nM; method not named for Table 1
[3] = molecular target: T2, human PDGFRA-Fc (human, UniProt P16234 24-524, limits assumed); experiment: as above
T2 construct: also called PDGFRA-Fc (Human); not shown: Fc
T2 sequence (P16234 24-524 limits assumed): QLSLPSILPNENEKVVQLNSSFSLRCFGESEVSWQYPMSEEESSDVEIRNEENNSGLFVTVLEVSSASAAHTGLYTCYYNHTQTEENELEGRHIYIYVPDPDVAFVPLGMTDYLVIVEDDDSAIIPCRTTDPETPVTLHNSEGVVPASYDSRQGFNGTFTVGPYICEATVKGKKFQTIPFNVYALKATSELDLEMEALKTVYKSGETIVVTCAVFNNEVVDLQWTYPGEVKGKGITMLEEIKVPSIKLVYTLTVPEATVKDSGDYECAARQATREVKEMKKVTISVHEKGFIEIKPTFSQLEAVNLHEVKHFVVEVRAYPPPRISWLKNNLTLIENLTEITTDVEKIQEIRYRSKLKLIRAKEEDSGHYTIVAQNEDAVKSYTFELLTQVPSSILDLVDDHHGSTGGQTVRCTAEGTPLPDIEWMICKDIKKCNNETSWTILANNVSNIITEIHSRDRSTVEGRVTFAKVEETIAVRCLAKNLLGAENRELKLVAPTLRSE

[4] = molecular target: human PDGFRA (human, UniProt P16234 24-524, limits assumed); experiment: binding ELISA on coated human PDGFRA; parental EC50 divided by variant EC50; pool evaluation
Sequence of human PDGFRA (P16234 24-524 limits assumed): as above

[5] = molecular target: T1, cPDGFRA extracellular domain (ECD)-Fc …; experiment: titration binding ELISA on coated cPDGFRA-Fc; parental EC50 divided by variant EC50; pool evaluation
[6] = molecular target: T3, canine platelet derived growth factor receptor alpha (cPDGFRA) (dog, UniProt A0A8I3NAN8 49-553, biotinylated (sites not given) in the blocking ELISA); experiment: blocking ELISA: antibody with biotinylated cPDGFRA on coated canine PDGFAA; parental IC50 divided by variant IC50; pool evaluation
T3 construct: The construct is not described; also called biotinylated-cPDGFRA

[7] = molecular target: T1, cPDGFRA extracellular domain (ECD)-Fc …; experiment: binding ELISA on coated cPDGFRA-Fc; unit from paragraph 44
[8] = molecular target: T1, cPDGFRA extracellular domain (ECD)-Fc …; experiment: SPR, BIAcore T200, cPDGFRA-ECD-Xa-Fc immobilized, antibody injected, 25 C
Protocol: The binding kinetics of selected K9-6N6.1 variants to cPDGFRA were measured using a BIAcore T200 instrument (BIAcore, Inc., Piscataway, N.J.). Briefly, a cPDGFRA extracellular domain (ECD)-Fc fusion protein was immobilized on a sensor chip and antibody was injected at various concentrations. Sensograms were obtained at each concentration and evaluated using the BIA Evaluation 3.0 program to determine rate constants. The affinity constant (KD) was calculated from the ratio of rate constants Koff/Kon. The evaluation was performed at 25° C.

[9] = molecular target: T3, canine platelet derived growth factor …; experiment: blocking ELISA: antibody with biotinylated cPDGFRA on coated canine PDGFAA; unit from paragraph 44

fold lower affinity than Olaratumab binding to human PDGFRA [1] | Kd [2] | koff [2] | kon [2] | Kd [3] | koff [3] | kon [3] | Human PDGFRA Binding EC50 improvement (fold) over parental K9-6N6.1 [4] | cPDGFRA Binding EC50 improvement (fold) over parental K9-6N6.1 [5] | cPDGFRA Blocking IC50 improvement (fold) over parental K9-6N6.1 [6] | EC50 [7] | Improvement (fold) of KD over parent K9-6N6.1 [8] | Kd [8] | koff [8] | kon [8] | IC50 [9] | Binder
~10 fold | 3.44 nM | 0.00294 s⁻¹ | 856000 M⁻¹ s⁻¹ | 0.307 nM | 0.000248 s⁻¹ | 808000 M⁻¹ s⁻¹ | – | – | – | – | – | – | – | – | – | Olaratumab (antibody, human IgG1, kappa, Fully human IgG1 monoclonal antibody; also called IMC-3G3; human Olaratumab) heavy: not shown light: not shown
– | – | – | – | – | – | – | 1.83 fold | 1.43 fold | 13.4 fold | – | – | – | – | – | – | K9-6N6.1 variant LC-S28A (clone 2A2) (antibody, V domains shown) VH: QLQLQESGPGLVKPSETLSLTCTVSGGSINSSSYYWGWLRQSPGKGLEWIGSFFYTGSTYYNPSLRSRLTISVDTSKNQFSLMLSSVTAADTAVYYCARQSTYYYGSGNYYGWFDRWDQGTLVTVSS VL: EIVLTQSPATLSLSPGERATLSCRASQAVSSYLAWYQQKPGQAPRLLIYDASNRATGIPARFSGSGSGTDFTLTISSLEPEDFAVYYCQQRSNWPPAFGQGTKVEIKR
~10 fold | 1.92 nM | 0.00161 s⁻¹ | 840000 M⁻¹ s⁻¹ | – | – | – | – | – | – | 0.272 nM | 1 fold | 4.87 nM | 0.00247 s⁻¹ | 508000 M⁻¹ s⁻¹ | 31.5 nM | K9-6N6.1 (antibody, Olaratumab HCVR on canine IgB heavy constant region, Olaratumab LCVR on canine kappa constant region; also called parental K9-6N6.1; parent K9-6N6.1) heavy: QLQLQESGPGLVKPSETLSLTCTVSGGSINSSSYYWGWLRQSPGKGLEWIGSFFYTGSTYYNPSLRSRLTISVDTSKNQFSLMLSSVTAADTAVYYCARQSTYYYGSGNYYGWFDRWDQGTLVTVSSASTTAPSVFPLAPSCGSTSGSTVALACLVSGYFPEPVTVSWNSGSLTSGVHTFPSVLQSSGLYSLSSMVTVPSSRWPSETFTCNVAHPASKTKVDKPVPKRENGRVPRPPDCPKCPAPEMLGGPSVFIFPPKPKDTLLIARTPEVTCVVVDLDPEDPEVQISWFVDGKQMQTAKTQPREEQFNGTYRVVSVLPIGHQDWLKGKQFTCKVNNKALPSPIERTISKARGQAHQPSVYVLPPSREELSKNTVSLTCLIKDFFPPDIDVEWQSNGQQEPESKYRTTPPQLDEDGSYFLYSKLSVDKSRWQRGDTFICAVMHEALHNHYTQESLSHSPGK light: EIVLTQSPATLSLSPGERATLSCRASQSVSSYLAWYQQKPGQAPRLLIYDASNRATGIPARFSGSGSGTDFTLTISSLEPEDFAVYYCQQRSNWPPAFGQGTKVEIKRNDAQPAVYLFQPSPDQLHTGSASVVCLLNSFYPKDINVKWKVDGVIQDTGIQESVTEQDKDSTYSLSSTLTMSSTEYLSHELYSCEITHKSLPSTLIKSFQRSECQRVD
